Measured values from publication PMC7424196 (iScience, 2020).
Like-named read-outs stand apart in the source and are kept apart here. Values belong to the binder of their own block, whether it stands above or below them.

How the values were obtained:
γc extracellular domain [1] = target: T1, γc extracellular domain (UniProt P34902 23-263); assay: SPR
T1 sequence (looked up): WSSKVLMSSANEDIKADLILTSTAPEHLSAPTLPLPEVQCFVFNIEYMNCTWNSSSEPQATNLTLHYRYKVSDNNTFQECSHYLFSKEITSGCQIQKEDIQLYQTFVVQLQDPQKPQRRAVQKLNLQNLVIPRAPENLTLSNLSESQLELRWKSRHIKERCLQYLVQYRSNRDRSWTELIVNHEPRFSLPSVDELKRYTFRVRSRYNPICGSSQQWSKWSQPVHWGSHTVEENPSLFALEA

γc extracellular domain [2] = target: T1, γc extracellular domain; assay: SPR; remark: listed apart in the source

Kd (γc extracellular domain [1]): 577 ± 40 µM
B1: IL-2Rβ extracellular domain (domain or fragment, UniProt P16297 27-240, looked up)
chain: AVKNCSHLECFYNSRANVSCMWSHEEALNVTTCHVHAKSNLRHWNKTCELTLVRQASWACNLILGSFPESQSLTSVDLLDINVVCWEEKGWRRVKTCDFHPFDNLRLVAPHSLQVLHIDTQRCNISWKVSQVSHYIEPYLEFEARRRLLGHSWEDASVLSLKQRQQWLFLEMLIPSTSYEVQVRVKAQRNNTGTWSPWSQPLTFRTRPADPMKE

Kd (γc extracellular domain [2]): 0.0373 ± 0.0004 µM
koff (γc extracellular domain [2]): 0.000221 s⁻¹
kon (γc extracellular domain [2]): 5930 M⁻¹ s⁻¹
B2: IL-7Rα extracellular domain (domain or fragment, UniProt P16872 21-239, looked up)
chain: ESGNAQDGDLEDADADDHSFWCHSQLEVDGSQHLLTCAFNDSDINTANLEFQICGALLRVKCLTLNKLQDIYFIKTSEFLLIGSSNICVKLGQKNLTCKNMAINTIVKAEAPSDLKVVYRKEANDFLVTFNAPHLKKKYLKKVKHDVAYRPARGESNWTHVSLFHTRTTIPQRKLRPKAMYEIKVRSIPHNDYFKGFWSEWSPSSTFETPEPKNQGGWD
